# Measured values from US20150010932A1 (SALK INSTITUTE FOR BIOLOGICAL STUDIES, published 2015).
# B1: cLuc-linker-HA-Mdm2_RING (other)
# chain: MSGYVNNPEATNALIDKDGWLHSGDIAYWDEDEHFFIVDRLKSLIKYKGYQVAPAELESILLQHPNIFDAGVAGLPDDDAGELPAAVVVLEHGKTMTEKEIVDYVASQVTTAKKLRGGVVFVDEVPKGLTGKLDARKIREILIKAKKGGKIAVGGGSGGGQISYASRGYPYDVPDYAGSSSLPLNAIEPCVICQGRPKNGCIVHGKTGHLMACFTCAKKLKKRNKPCPVCRQPIQMIVLTYFP
# notes: range 428-491; Expressed from pLi283; also called cLuc-Mdm2_RING; Mdm2 RING domain
# B2: nLuc-linker-HA-Mdm4_RING (other)
# chain: MEDAKNIKKGPAPFYPLEDGTAGEQLHKAMKRYALVPGTIAFTDAHIEVDITYAEYFEMSVRLAEAMKRYGLNTNHRIVVCSENSLQFFMPVLGALFIGVAVAPANDIYNERELLNSMGISQPTVVFVSKKGLQKILNVQKKLPIIQKIIIMDSKTDYQGFQSMYTFVTSHLPPGFNEYDFVPESFDRDKTIALIMNSSGSTGLPKGVALPHRTACVRFSHARDPIFGNQIIPDTAILSVVPFHHGFGMFTTLGYLICGFRVVLMYRFEEELFLRSLQDYKIQSALLVPTLFSFFAKSTLIDKYDLSNLHEIASGGAPLSKEVGEAVAKRFHLPGIRQGYGLTETTSAILITPEGDDKPGAVGKVVPFFEAKVVDLDTGKTLGVNQRGELCVRGPMIMSGYVNNPEATNALIDKDGGGGSGGGQISYASRGYPYDVPDYAGSMEDCQNLLKPCSLCEKRPRDGNIIHGRTGHLVTCFHCARRLKKAGASCPICKKEIQLVIKVFIA
# notes: range 427-490; Expressed from pLi283 and pLi285; also called nLuc-Mdm4_RING; Mdm4 RING domain
# Columns and labels:
# [1] = molecular target: B2; experiment: BiLC in U2OS cell lysates, three lysis buffers
# [2] = molecular target: B1; experiment: BiLC in cell lysate with PPI lysis buffer PLB; reference is the Mdm4_RING / Mdm2_RING_C464A pair
# [3] = molecular target: T1, nLuc-linker-HA-Ube2t (UniProt Q9NPD8 1-197, limits assumed); experiment: ReBiL BiLC in living U2OS cells at 35° C
# T1 construct: Expressed from pLi505 and pLi506; also called nLuc-Ube2t; nLuc-Linker1-HA-Ube2t; not shown: linker-HA
# T1 sequence (Q9NPD8 whole entry): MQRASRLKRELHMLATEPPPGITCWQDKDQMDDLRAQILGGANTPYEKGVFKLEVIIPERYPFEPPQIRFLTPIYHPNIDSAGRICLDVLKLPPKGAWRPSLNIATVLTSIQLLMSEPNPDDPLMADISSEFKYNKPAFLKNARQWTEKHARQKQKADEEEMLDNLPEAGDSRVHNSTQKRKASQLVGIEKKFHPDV
# [4] = molecular target: TAT-PMI; experiment: lysate BiLC (FIG. 13B); disruption of nLuc-p53 / cLuc-Mdm4
# [5] = molecular target: B2; experiment: BiLC in cells and in cell lysate (FIGS. 16 and 12)
# [6] = molecular target: T1, nLuc-linker-HA-Ube2t; experiment: ReBiL BiLC in living U2OS cells at 35° C (FIG. 23C)
# [7] = molecular target: T2, cLuc-linker-HA (Photinus pyralis (Common eastern …, UniProt P08659 398-547 = luciferase)); experiment: quantitative ReBiL assay in U2OS cells (FIG. 17D)
# T2 construct: Expressed from pLi635, no fusion partner; also called cLuc-HA; cLuc alone; not shown: linker-HA
binder,measurement,setting,value
B1,binding result,[1],binds
B2,BiLC signal (wild type) to noise (mutant) ratio,[2],> 1000 fold
"cLuc-linker-FLAG-FANCL_WT (other, mature; Expressed from pLi505; also called cLuc-FANCL) MSGYVNNPEATNALIDKDGWLHSGDIAYWDEDEHFFIVDRLKSLIKYKGYQVAPAELESILLQHPNIFDAGVAGLPDDDAGELPAAVVVLEHGKTMTEKEIVDYVASQVTTAKKLRGGVVFVDEVPKGLTGKLDARKIREILIKAKKGGKIAVGGGSGGGQISYASRGDYKDDDDKSGAVTEASLLRQCPLLLPQNRSKTVYEGFISAQGRDFHLRIVLPEDLQLKNARLLCSWQLRTILSGYHRIVQQRMQHSPDLMSFMMELKMLLEVALKNRQELYALPPPPQFYSSLIEEIGTLGWDKLVYADTCFSTIKLKAEDASGREHLITLKLKAKYPAESPDYFVDFPVPFCASWTPQSSLISIYSQFLAAIESLKAFWDVMDEIDEKTWVLEPEKPPRSATARRIALGNNVSINIEVDPRHPTMLPECFFLGADHVVKPLGIKLSRNIHLWDPENSVLQNLKDVLEIDFPARAILEKSDFTMDCGICYAYQLDGTIPDQVCDNSQCGQPFHQICLYEWLRGLLTSRQSFNIIFGECPYCSKPITLKMSGRKH",binding result,[3],binds
"cLuc-linker-FLAG-Mdm4-111 (other, range 2-111; Expressed from pLi354 with nLuc-p53; also called cLuc-Mdm4) MSGYVNNPEATNALIDKDGWLHSGDIAYWDEDEHFFIVDRLKSLIKYKGYQVAPAELESILLQHPNIFDAGVAGLPDDDAGELPAAVVVLEHGKTMTEKEIVDYVASQVTTAKKLRGGVVFVDEVPKGLTGKLDARKIREILIKAKKGGKIAVGGGSGGGQISYASRGDYKDDDDKSGTSFSTSAQCSTSDSACRISPGQINQVRPKLPLLKILHAAGAQGEMFTVKEVMHYLGQYIMVKQLYDQQEQHMVYCGGDLLGELLGRQSFSVKDPSPLYDMLRKNLVTLAT",binding result,[4],binds
"cLuc-linker-HA-Mdm2_RING-C464A (other, range 428-491; Expressed from pLi285; also called Mdm2_C464A) MSGYVNNPEATNALIDKDGWLHSGDIAYWDEDEHFFIVDRLKSLIKYKGYQVAPAELESILLQHPNIFDAGVAGLPDDDAGELPAAVVVLEHGKTMTEKEIVDYVASQVTTAKKLRGGVVFVDEVPKGLTGKLDARKIREILIKAKKGGKIAVGGGSGGGQISYASRGYPYDVPDYAGSSSLPLNAIEPCVICQGRPKNGCIVHGKTGHLMACFTAAKKLKKRNKPCPVCRQPIQMIVLTYFP",binding result,[5],no binding
"cLuc-linker-FLAG-FANCL_C307A (other, mature; Expressed from pLi506) MSGYVNNPEATNALIDKDGWLHSGDIAYWDEDEHFFIVDRLKSLIKYKGYQVAPAELESILLQHPNIFDAGVAGLPDDDAGELPAAVVVLEHGKTMTEKEIVDYVASQVTTAKKLRGGVVFVDEVPKGLTGKLDARKIREILIKAKKGGKIAVGGGSGGGQISYASRGDYKDDDDKSGAVTEASLLRQCPLLLPQNRSKTVYEGFISAQGRDFHLRIVLPEDLQLKNARLLCSWQLRTILSGYHRIVQQRMQHSPDLMSFMMELKMLLEVALKNRQELYALPPPPQFYSSLIEEIGTLGWDKLVYADTCFSTIKLKAEDASGREHLITLKLKAKYPAESPDYFVDFPVPFCASWTPQSSLISIYSQFLAAIESLKAFWDVMDEIDEKTWVLEPEKPPRSATARRIALGNNVSINIEVDPRHPTMLPECFFLGADHVVKPLGIKLSRNIHLWDPENSVLQNLKDVLEIDFPARAILEKSDFTMDAGICYAYQLDGTIPDQVCDNSQCGQPFHQICLYEWLRGLLTSRQSFNIIFGECPYCSKPITLKMSGRKH",binding result,[6],no binding
"nLuc-linker-HA (other, Expressed from pLi635, no fusion partner; also called nLuc-HA; nLuc alone; not shown: linker-HA) MEDAKNIKKGPAPFYPLEDGTAGEQLHKAMKRYALVPGTIAFTDAHIEVDITYAEYFEMSVRLAEAMKRYGLNTNHRIVVCSENSLQFFMPVLGALFIGVAVAPANDIYNERELLNSMGISQPTVVFVSKKGLQKILNVQKKLPIIQKIIIMDSKTDYQGFQSMYTFVTSHLPPGFNEYDFVPESFDRDKTIALIMNSSGSTGLPKGVALPHRTACVRFSHARDPIFGNQIIPDTAILSVVPFHHGFGMFTTLGYLICGFRVVLMYRFEEELFLRSLQDYKIQSALLVPTLFSFFAKSTLIDKYDLSNLHEIASGGAPLSKEVGEAVAKRFHLPGIRQGYGLTETTSAILITPEGDDKPGAVGKVVPFFEAKVVDLDTGKTLGVNQRGELCVRGPMIMSGYVNNPEATNALIDKDG",binding result,[7],no binding
